According to patent US20250043302A1, “MUTATED HYDROXYPHENYLPYRUVATE DIOXYGENASE POLYPEPTIDE, AND CODING GENE AND USE THEREOF” (BEIJING DABEINONG BIOTECHNOLOGY CO., LTD., priority 2021, published 2025):

How the values were obtained:
Assay type in all cases: in vivo
[1] = tested on: Arabidopsis thaliana T1 plants; experiment: Topramezone tolerance of transgenic Arabidopsis thaliana T1 plants (spray, bleached leaf area grade, damage score); conditions: Table 13; for Classification and statistics of the grade of pesticide damage Grade 0: number of plants at grade 0; for Classification and statistics of the grade of pesticide damage Grade 1: number of plants at grade 1; for Classification and statistics of the grade of pesticide damage Grade 2: number of plants at grade 2; for Classification and statistics of the grade of pesticide damage Grade 3: number of plants at grade 3; for Scores: pesticide damage score
Method in brief: (§1)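 Damage was assessed by bleaching grade (0 none; 1 <50%; 2 >50%; 3 100% of leaf area) one week after spraying. Sprays on 18-day-old T1 and wild-type plants used field-rate multiples: topramezone 25–200, isoxaflutole 35–280, mesotrione 52.5–420 g ai/ha.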

[2] = tested on: Arabidopsis thaliana T1 plants; experiment: Isoxaflutole tolerance of transgenic Arabidopsis thaliana T1 plants (spray, bleached leaf area grade, damage score); conditions: for Classification and statistics of the grade of pesticide damage Grade 0 / Classification and statistics of the grade of pesticide damage Grade 1 / Classification and statistics of the grade of pesticide damage Grade 2 / Classification and statistics of the grade of pesticide damage Grade 3: number of plants in grade;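 as to Scores: Weighted damage index from 0 to 100 where higher means more damage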
Method in brief: as §1

[3] = tested on: Arabidopsis thaliana T1 plants; experiment: Mesotrione tolerance of transgenic Arabidopsis thaliana T1 plants (spray, bleached leaf area grade, damage score); design: Scores: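 damage score 0-100 computed as Σ(N×S)/(T×M)×100 over grades 0-3 with higher meaning more damage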; conditions: for Classification and statistics of the grade of pesticide damage Grade 0 / Classification and statistics of the grade of pesticide damage Grade 1 / Classification and statistics of the grade of pesticide damage Grade 2 / Classification and statistics of the grade of pesticide damage Grade 3: number of plants in grade
Method in brief: as §1

| Molecule | Resistance evaluation ([1]; topramezone 25 g ai/ha (1×)) | Classification and statistics of the grade of pesticide damage Grade 0 ([1]; topramezone 25 g ai/ha (1×)) | Classification and statistics of the grade of pesticide damage Grade 1 ([1]; topramezone 25 g ai/ha (1×)) | Classification and statistics of the grade of pesticide damage Grade 2 ([1]; topramezone 25 g ai/ha (1×)) | Classification and statistics of the grade of pesticide damage Grade 3 ([1]; topramezone 25 g ai/ha (1×)) | Scores ([1]; topramezone 25 g ai/ha (1×)) | Resistance evaluation ([1]; topramezone 100 g ai/ha (4×)) | Classification and statistics of the grade of pesticide damage Grade 0 ([1]; topramezone 100 g ai/ha (4×)) | Classification and statistics of the grade of pesticide damage Grade 1 ([1]; topramezone 100 g ai/ha (4×)) | Classification and statistics of the grade of pesticide damage Grade 2 ([1]; topramezone 100 g ai/ha (4×)) | Classification and statistics of the grade of pesticide damage Grade 3 ([1]; topramezone 100 g ai/ha (4×)) | Scores ([1]; topramezone 100 g ai/ha (4×)) | Resistance evaluation ([2]; isoxaflutole 35 g ai/ha) | Scores ([2]; isoxaflutole 35 g ai/ha) | Classification and statistics of the grade of pesticide damage Grade 0 ([2]; isoxaflutole 35 g ai/ha) | Classification and statistics of the grade of pesticide damage Grade 1 ([2]; isoxaflutole 35 g ai/ha) | Classification and statistics of the grade of pesticide damage Grade 2 ([2]; isoxaflutole 35 g ai/ha) | Classification and statistics of the grade of pesticide damage Grade 3 ([2]; isoxaflutole 35 g ai/ha) | Resistance evaluation ([2]; isoxaflutole 70 g ai/ha) | Scores ([2]; isoxaflutole 70 g ai/ha) | further results |
| --- | --- | --- | --- | --- | --- | --- | --- | --- | --- | --- | --- | --- | --- | --- | --- | --- | --- | --- | --- | --- | --- |
| AtHPPDm-F383Y-02: nucleotide sequence encoding Arabidopsis thaliana HPPD with F383Y; vector DBN11797 (nucleic acid, AtHPPDm-F383Y-02 Nucleotide Sequence, vector DBN11797) DNA: ATGGGACATCAGAATGCTGCTGTATCAGAAAATCAAAATCATGATGATGGAGCCGCCTCCTCACCAGGGTTTAAGTTGGTTGGGTTCTCCAAGTTTGTACGGAAGAACCCAAAATCCGACAAGTTCAAGGTTAAACGCTTCCACCACATTGAATTCTGGTGCGGCGACGCCACCAATGTTGCTCGGCGTTTTTCATGGGGTTTAGGCATGAGATTCTCAGCAAAGAGTGACCTGAGCACCGGCAACATGGTTCATGCTAGCTATCTCTTAACATCTGGAGATTTGAGGTTTCTTTTCACGGCGCCGTACTCACCATCACTCTCCGCCGGCGAGATCAAACCCACCACGACTGCAAGCATACCTTCATTTGATCATGGTAGTTGCAGATCCTTCTTCTCGTCGCACGGCCTAGGGGTGCGCGCGGTCGCCATCGAAGTTGAAGATGCAGAATCAGCGTTTAGTATCAGCGTGGCAAATGGAGCTATTCCTTCCTCCCCTCCAATTGTCCTCAATGAGGCTGTAACTATTGCCGAGGTGAAGTTGTATGGAGATGTTGTGCTGAGATATGTTTCTTACAAGGCAGAGGACACTGAGAAATCTGAATTTTTGCCTGGTTTTGAAAGGGTCGAGGATGCTTCAAGTTTTCCTCTTGATTACGGCATACGACGGTTGGATCACGCGGTTGGAAATGTACCAGAACTTGGGCCGGCGCTCACTTATGTGGCTGGTTTCACTGGATTCCATCAATTTGCTGAGTTCACAGCTGATGATGTTGGGACTGCTGAAAGTGGGTTGAACTCTGCAGTCCTCGCCTCTAATGATGAAATGGTGCTCCTCCCGATCAACGAGCCTGTGCATGGCACCAAAAGGAAATCACAAATACAGACATATCTTGAGCACAATGAAGGTGCAGGGCTTCAACATCTTGCACTGATGTCTGAAGACATTTTCCGTACGCTGAGAGAGATGAGGAAGAGAAGTAGTATTGGTGGATTTGACTTCATGCCTTCTCCCCCACCAACTTACTACCAGAACTTGAAGAAGAGGGTTGGTGATGTGCTATCTGATGACCAGATCAAGGAGTGTGAAGAATTGGGCATTCTTGTTGATCGGGACGACCAAGGAACATTACTGCAGATATTTACAAAACCACTTGGTGACCGCCCCACTATTTATATTGAGATCATACAAAGAGTCGGCTGCATGATGAAGGATGAGGAAGGAAAAGCATATCAATCTGGTGGTTGTGGCGGCTTTGGGAAAGGAAACTTCTCTGAGCTGTTCAAATCCATCGAGGAGTATGAGAAGACCTTGGAGGCCAAGCAGCTCGTGGGTTGA | Non-resistant | 0 | 0 | 0 | 16 | 100 | Non-resistant | 0 | 0 | 0 | 16 | 100 | Non-resistant | 100 | 0 | 0 | 0 | 16 | Non-resistant | 100 | Classification and statistics of the grade of pesticide damage Grade 0 ([2]; isoxaflutole 70 g ai/ha): 0; Classification and statistics of the grade of pesticide damage Grade 1 ([2]; isoxaflutole 70 g ai/ha): 0; Classification and statistics of the grade of pesticide damage Grade 2 ([2]; isoxaflutole 70 g ai/ha): 0; Classification and statistics of the grade of pesticide damage Grade 3 ([2]; isoxaflutole 70 g ai/ha): 16; Resistance evaluation ([3]; mesotrione 52.5 g ai/ha): Non-resistant; Scores ([3]; mesotrione 52.5 g ai/ha): 100; Classification and statistics of the grade of pesticide damage Grade 0 ([3]; mesotrione 52.5 g ai/ha): 0; Classification and statistics of the grade of pesticide damage Grade 1 ([3]; mesotrione 52.5 g ai/ha): 0; Classification and statistics of the grade of pesticide damage Grade 2 ([3]; mesotrione 52.5 g ai/ha): 0; Classification and statistics of the grade of pesticide damage Grade 3 ([3]; mesotrione 52.5 g ai/ha): 16; Resistance evaluation ([3]; mesotrione 105 g ai/ha): Non-resistant; Scores ([3]; mesotrione 105 g ai/ha): 100; Classification and statistics of the grade of pesticide damage Grade 0 ([3]; mesotrione 105 g ai/ha): 0; Classification and statistics of the grade of pesticide damage Grade 1 ([3]; mesotrione 105 g ai/ha): 0; Classification and statistics of the grade of pesticide damage Grade 2 ([3]; mesotrione 105 g ai/ha): 0; Classification and statistics of the grade of pesticide damage Grade 3 ([3]; mesotrione 105 g ai/ha): 16 |
| AtHPPDm-F372A-F383Y-02: nucleotide sequence encoding Arabidopsis thaliana HPPD with F372A+F383Y; vector DBN11798 (nucleic acid, AtHPPDm-F372A-F383Y-02 Nucleotide Sequence, vector DBN11798) DNA: ATGGGACATCAGAATGCTGCTGTATCAGAAAATCAAAATCATGATGATGGAGCCGCCTCCTCACCAGGGTTTAAGTTGGTTGGGTTCTCCAAGTTTGTACGGAAGAACCCAAAATCCGACAAGTTCAAGGTTAAACGCTTCCACCACATTGAATTCTGGTGCGGCGACGCCACCAATGTTGCTCGGCGTTTTTCATGGGGTTTAGGCATGAGATTCTCAGCAAAGAGTGACCTGAGCACCGGCAACATGGTTCATGCTAGCTATCTCTTAACATCTGGAGATTTGAGGTTTCTTTTCACGGCGCCGTACTCACCATCACTCTCCGCCGGCGAGATCAAACCCACCACGACTGCAAGCATACCTTCATTTGATCATGGTAGTTGCAGATCCTTCTTCTCGTCGCACGGCCTAGGGGTGCGCGCGGTCGCCATCGAAGTTGAAGATGCAGAATCAGCGTTTAGTATCAGCGTGGCAAATGGAGCTATTCCTTCCTCCCCTCCAATTGTCCTCAATGAGGCTGTAACTATTGCCGAGGTGAAGTTGTATGGAGATGTTGTGCTGAGATATGTTTCTTACAAGGCAGAGGACACTGAGAAATCTGAATTTTTGCCTGGTTTTGAAAGGGTCGAGGATGCTTCAAGTTTTCCTCTTGATTACGGCATACGACGGTTGGATCACGCGGTTGGAAATGTACCAGAACTTGGGCCGGCGCTCACTTATGTGGCTGGTTTCACTGGATTCCATCAATTTGCTGAGTTCACAGCTGATGATGTTGGGACTGCTGAAAGTGGGTTGAACTCTGCAGTCCTCGCCTCTAATGATGAAATGGTGCTCCTCCCGATCAACGAGCCTGTGCATGGCACCAAAAGGAAATCACAAATACAGACATATCTTGAGCACAATGAAGGTGCAGGGCTTCAACATCTTGCACTGATGTCTGAAGACATTTTCCGTACGCTGAGAGAGATGAGGAAGAGAAGTAGTATTGGTGGATTTGACTTCATGCCTTCTCCCCCACCAACTTACTACCAGAACTTGAAGAAGAGGGTTGGTGATGTGCTATCTGATGACCAGATCAAGGAGTGTGAAGAATTGGGCATTCTTGTTGATCGGGACGACCAAGGAACATTACTGCAGATAGCCACAAAACCACTTGGTGACCGCCCCACTATTTATATTGAGATCATACAAAGAGTCGGCTGCATGATGAAGGATGAGGAAGGAAAAGCATATCAATCTGGTGGTTGTGGCGGCTTTGGGAAAGGAAACTTCTCTGAGCTGTTCAAATCCATCGAGGAGTATGAGAAGACCTTGGAGGCCAAGCAGCTCGTGGGTTGA | Poorly | 4 | 4 | 8 | 0 | 42 | Non-resistant | 0 | 0 | 4 | 12 | 92 | Poorly | 56 | 0 | 9 | 3 | 4 | Non-resistant | 100 | Classification and statistics of the grade of pesticide damage Grade 0 ([2]; isoxaflutole 70 g ai/ha): 0; Classification and statistics of the grade of pesticide damage Grade 1 ([2]; isoxaflutole 70 g ai/ha): 0; Classification and statistics of the grade of pesticide damage Grade 2 ([2]; isoxaflutole 70 g ai/ha): 0; Classification and statistics of the grade of pesticide damage Grade 3 ([2]; isoxaflutole 70 g ai/ha): 16; Resistance evaluation ([3]; mesotrione 52.5 g ai/ha): Poorly resistant; Scores ([3]; mesotrione 52.5 g ai/ha): 63; Classification and statistics of the grade of pesticide damage Grade 0 ([3]; mesotrione 52.5 g ai/ha): 0; Classification and statistics of the grade of pesticide damage Grade 1 ([3]; mesotrione 52.5 g ai/ha): 5; Classification and statistics of the grade of pesticide damage Grade 2 ([3]; mesotrione 52.5 g ai/ha): 8; Classification and statistics of the grade of pesticide damage Grade 3 ([3]; mesotrione 52.5 g ai/ha): 3; Resistance evaluation ([3]; mesotrione 105 g ai/ha): Non-resistant; Scores ([3]; mesotrione 105 g ai/ha): 100; Classification and statistics of the grade of pesticide damage Grade 0 ([3]; mesotrione 105 g ai/ha): 0; Classification and statistics of the grade of pesticide damage Grade 1 ([3]; mesotrione 105 g ai/ha): 0; Classification and statistics of the grade of pesticide damage Grade 2 ([3]; mesotrione 105 g ai/ha): 0; Classification and statistics of the grade of pesticide damage Grade 3 ([3]; mesotrione 105 g ai/ha): 16 |
